Usually Km stands for the substrate concentration at which the rate is half of its maximum. By kcat is commonly meant the number of substrate molecules converted per active site and unit of time at saturation. One may read the stoichiometry N as the number of molecules, sites or subunits per partner or assembly.

Substrate in the data set “purified protein”: C[S+](CC[C@H](N)C(=O)O)C[C@H]1O[C@@H](n2cnc3c(N)ncnc32)[C@H](O)[C@@H]1O
As to the kind of experiment: purified protein. The settings on record: 60:40 PE 18:1/18:1:DPPG 100 nm unilamellar liposomes 1 mg/ml, HEPES pH 7.5, 37 °C.

Data set [1] deals with the molecule itself. Kind of data set: native MS; native ion mobility MS; 5 uM enzyme buffer exchanged into 200 mM ammonium acetate, pH 7.5; nanoESI under gentle conditions (Waters Synapt G2-Si); collision-induced unfolding of the 20+ dimer ion at 4 to 110 V.

B1: EC-CFAS (Escherichia coli K-12) (protein)
chain: SSSCIEEVSVPDDNWYRIANELLSRAGIAINGSAPADIRVKNPDFFKRVLQEGSLGLGESYMDGWWECDRLDMFFSKVLRAGLENQLPHHFKDTLRIAGARLFNLQSKKRAWIVGKEHYDLGNDLFSRMLDPFMQYSCAYWKDADNLESAQQAKLKMICEKLQLKPGMRVLDIGCGWGGLAHYMASNYDVSVVGVTISAEQQKMAQERCEGLDVTILLQDYRDLNDQFDRIVSVGMFEHVGPKNYDTYFAVVDRNLKPEGIFLLHTIGSKKTDLNVDPWINKYIFPNGCLPSVRQIAQSSEPHFVMEDWHNFGADYDTTLMAWYERFLAAWPEIADNYSERFKRMFTYYLNACAGAFRARDIQLWQVVFSRGVENGLRVAR
In the case of B1, in the data set “purified protein”, the Michaelis-Menten constant (Km) stood at 68 µM and the kcat was found to be 0.217 s⁻¹.

B2: Pseudomonas aeruginosa PAO1 cyclopropane fatty acid synthase (PA-CFAS) (enzyme, UniProt Q9HT28 1-394, looked up)
chain: MIAQLPSELLSLQLPLRIRIGDAQAFDLGPDPQVTMVIRDPSLLTEITHPSLDALGKAYVEKRLDIEGPISQVIGIGDALSEALGEPDGGAPPVRESHDKDTDAEAIHYHYDLSNDFYQLWLDPEMVYSCAYFETGKEDLATAQLAKLRHLCRKLRLQPGEKLLDVGCGWGGLARLAAREFGVEVTGITLSKEQLALGRERVKAEGLEDRVTLKLLDYRDLPRDGRFDKVVSVGMFEHVGHANLGLYFQQLYEAVRPGGLVMNHGITSRYTDGRPVGKGAGDFIDRYVFPHGELPHLSLAVARMSEAGLEVVDVESLRLHYARTLDFWSANLEARLKEAARLVPEETLRIWRLYLAGCAYGFKRGWINLHQILAIRPHEDGSHELPWSRRDLYA
notes: Cyclopropane fatty acid synthase, gene PA5546, P. aeruginosa PAO1, amplified from the PAO1 genome and cloned into pET16b; monomer with His6 tag MWcalc = MWobs = 46,486 Da; The native-MS dimer mass (92,972 Da) is twice the tagged monomer mass, so the tag was present in the assay; also called PA5546; Pseudomonas CFAS enzyme
As to B2, the “stoichiometry N” value in data set [1] is 2.

Source of the values: paper PMC11387697, “Defining the functional properties of cyclopropane fatty acid synthase from Pseudomonas aeruginosa PAO1” (The Journal of Biological Chemistry, 2024).
